Data from paper PMC4383587, “The Evolutionary Origination and Diversification of a Dimorphic Gene Regulatory Network through Parallel Innovations in cis and trans”.

B1: Motif 3 (t_MSE2 site S3, Probe 4) (dsDNA)
DNA 1: GAGAATTCAAGATCATAATATGTATACTAA
DNA 2: TTAGTATACATATTATGATCTTGAATTCTC
B2: Motif 4 (t_MSE2 site S4, Probe 5) (dsDNA)
DNA 1: ATGTATACTAATTAGACAGTCTCTTTTTTT
DNA 2: AAAAAAAGAGACTGTCTAATTAGTATACAT
B3: Motif 5 (t_MSE2 site S5, Probe 6) (dsDNA)
DNA 1: TTTTTATTACTTCAACTATTCAAATTT
DNA 2: AAATTTGAATAGTTGAAGTAATAAAAA

molecular target: GST-Abd-A DBD (Drosophila melanogaster, UniProt P29555-2 136-209); test: EMSA; 50 mM HEPES pH 7.9, 100 mM KCl, 1 mM DTT, 12.5 mM MgCl2, 0.05 mM EDTA, 17% glycerol, 400 ng/ul poly(dI-dC), 20 fmol probe, 0-3000 ng protein, 30 min on ice; settings: protein: recombinant; tags: N-terminal GST (pGEX4T1); label: 3' biotin on each strand; blunt
Sequence (P29555 396-469): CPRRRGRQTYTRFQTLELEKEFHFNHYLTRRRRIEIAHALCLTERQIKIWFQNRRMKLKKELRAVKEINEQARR

Q: Does B1 bind?
A: Result: binds

Q: Does B2 bind?
A: Result: binds

Q: Does B3 bind?
A: Result: binds
